Test results from paper PMC2917178 (Biochemistry, 2010).
Several values for one entry are separate records, joined by “and”; a condition that tells them apart may be missing. Equal values may be shown once.

Legend:
[1] = test system: Esa1; details: E338Q vs wildtype Esa1, ref [35]; cited from earlier work
[2] = biological target: Rtt109 D288N (with Vps75) (Saccharomyces cerevisiae, UniProt P53853+Q07794, D288N); assay type: biochemical, yeast (Saccharomyces cerevisiae)
[3] = biological target: Rtt109 D287N (with Vps75) (Saccharomyces cerevisiae, UniProt P53853+Q07794, D287N); assay type: biochemical, yeast (Saccharomyces cerevisiae); details: H3 peptide saturation
Chain of Rtt109 D287N (with Vps75) (P53853 whole entry, one chain of several): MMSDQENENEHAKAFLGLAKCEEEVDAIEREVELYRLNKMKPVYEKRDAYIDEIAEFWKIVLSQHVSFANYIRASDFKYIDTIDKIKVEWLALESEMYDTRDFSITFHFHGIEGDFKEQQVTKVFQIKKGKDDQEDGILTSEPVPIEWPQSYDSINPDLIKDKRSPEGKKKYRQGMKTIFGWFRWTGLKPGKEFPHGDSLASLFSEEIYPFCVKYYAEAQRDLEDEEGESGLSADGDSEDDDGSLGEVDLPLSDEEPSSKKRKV

[4] = biological target: T1, Rtt109 D287A/D288A (with Vps75) (Saccharomyces cerevisiae, UniProt P53853+Q07794, D287A/D288A); assay type: biochemical, yeast (Saccharomyces cerevisiae)
T1 sequence (P53853 whole entry, one chain of several): as above

[5] = biological target: T1, Rtt109 D287A/D288A (with Vps75); assay type: biochemical, yeast (Saccharomyces cerevisiae); details: H3 peptide saturation

Chain of Rtt109 D288N (with Vps75) (P53853 whole entry, one chain of several): as above

B1: E338Q: Esa1 with mutation of the general base catalyst Glu-338 (protein, UniProt Q08649 1-445, looked up, variant E338Q)
Histone acetyltransferase ESA1: MSHDGKEEPGIAKKINSVDDIIIKCQCWVQKNDEERLAEILSINTRKAPPKFYVHYVNYNKRLDEWITTDRINLDKEVLYPKLKATDEDNKKQKKKKATNTSETPQDSLQDGVDGFSRENTDVMDLDNLNVQGIKDENISHEDEIKKLRTSGSMTQNPHEVARVRNLNRIIMGKYEIEPWYFSPYPIELTDEDFIYIDDFTLQYFGSKKQYERYRKKCTLRHPPGNEIYRDDYVSFFEIDGRKQRTWCRNLCLLSKLFLDHKTLYYDVDPFLFYCMTRRDELGHHLVGYFSKEKESADGYNVACILTLPQYQRMGYGKLLIEFSYELSKKENKVGSPQKPLSDLGLLSYRAYWSDTLITLLVEHQKEITIDEISSMTSMTTTDILHTAKTLNILRYYKGQHIIFLNEDILDRYNRLKAKKRRTIDPNRLIWKPPVFTASQLRFAW
- upward shift of pKa of ionizable group [1]: 1.4 pH-units

B2: D288N: single point mutant of Rtt109 (protein, UniProt Q07794 1-436, looked up, variant D288N)
Histone acetyltransferase …: MSLNDFLSSVLPVSEQFEYLSLQSIPLETHAVVTPNKDDKRVPKSTIKTQHFFSLFHQGKVFFSLEVYVYVTLWDEADAERLIFVSKADTNGYCNTRVSVRDITKIILEFILSIDPNYYLQKVKPAIRSYKKISPELISAASTPARTLRILARRLKQSGSTVLKEIESPRFQQDLYLSFTCPREILTKICLFTRPASQYLFPDSSKNSKKHILNGEELMKWWGFILDRLLIECFQNDTQAKLRIPGEDPARVRSYLRGMKYPLWQVGDIFTSKENSLAVYNIPLFPDNPKARFIHQLAEEDRLLKVSLSSFWIELQERQEFKLSVTSSVMGISGYSLATPSLFPSSADVIVPKSRKQFRAIKKYITGEEYDTEEGAIEAFTNIRDFLLLRMATNLQSLTGKREHRERNQPVPASNINTLAITMLKPRKKAKALPKT
- decrease in kcat/Km for AcCoA ([2]; AcCoA): 1000 fold
- decrease of kcat/Km for AcCoA versus wildtype ([2]; AcCoA): ~3 orders of magnitude
- increase in Km for AcCoA versus wildtype ([2]; AcCoA saturation): ~16 fold
- decrease of kcat versus wildtype ([2]; H3 peptide saturation): ~50 fold and 50-100 fold

B3: D287N: single point mutant of Rtt109 (protein, UniProt Q07794 1-436, looked up, variant D287N)
Histone acetyltransferase …: MSLNDFLSSVLPVSEQFEYLSLQSIPLETHAVVTPNKDDKRVPKSTIKTQHFFSLFHQGKVFFSLEVYVYVTLWDEADAERLIFVSKADTNGYCNTRVSVRDITKIILEFILSIDPNYYLQKVKPAIRSYKKISPELISAASTPARTLRILARRLKQSGSTVLKEIESPRFQQDLYLSFTCPREILTKICLFTRPASQYLFPDSSKNSKKHILNGEELMKWWGFILDRLLIECFQNDTQAKLRIPGEDPARVRSYLRGMKYPLWQVGDIFTSKENSLAVYNIPLFPNDPKARFIHQLAEEDRLLKVSLSSFWIELQERQEFKLSVTSSVMGISGYSLATPSLFPSSADVIVPKSRKQFRAIKKYITGEEYDTEEGAIEAFTNIRDFLLLRMATNLQSLTGKREHRERNQPVPASNINTLAITMLKPRKKAKALPKT
- decrease in activity (kcat) versus wildtype [3]: ~10 fold

B4: D287A/D288A: double point mutant of Rtt109 (protein, UniProt Q07794 1-436, looked up, variant D287A D288A)
Histone acetyltransferase …: MSLNDFLSSVLPVSEQFEYLSLQSIPLETHAVVTPNKDDKRVPKSTIKTQHFFSLFHQGKVFFSLEVYVYVTLWDEADAERLIFVSKADTNGYCNTRVSVRDITKIILEFILSIDPNYYLQKVKPAIRSYKKISPELISAASTPARTLRILARRLKQSGSTVLKEIESPRFQQDLYLSFTCPREILTKICLFTRPASQYLFPDSSKNSKKHILNGEELMKWWGFILDRLLIECFQNDTQAKLRIPGEDPARVRSYLRGMKYPLWQVGDIFTSKENSLAVYNIPLFPAAPKARFIHQLAEEDRLLKVSLSSFWIELQERQEFKLSVTSSVMGISGYSLATPSLFPSSADVIVPKSRKQFRAIKKYITGEEYDTEEGAIEAFTNIRDFLLLRMATNLQSLTGKREHRERNQPVPASNINTLAITMLKPRKKAKALPKT
- downward shift of apparent pKa versus wildtype ([4]; D287A/D288A kcat pH profile): ~1 pH unit
- pKa from kcat pH profile ([4]; D287A/D288A, ATE buffer, pH 7-9, 25 °C, 400 μM H3 peptide, 60 μM AcCoA, twice in duplicate, Eq. 11): 7.5 ± 0.1
- decrease of kcat versus wildtype [5]: ~100 fold and 50-100 fold
